In patent publication US20260125457A1 (Janssen / Centocor, published 2026):

T1: 22 amino acid CALRmut-specific peptide (acetylation of the terminal amino-group; C-terminal -OH group)
T1 construct: also called 22aa CALRmut peptide; CALRmut target peptide
T1 peptide: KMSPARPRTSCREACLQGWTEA

B1: CALRB78 (MP1016C Fab x CD3W245-LH-scFv, medium affinity) (bispecific antibody, part only; not given: anti-CD3 scFv arm, constant regions, V domains shown, not shown: another chain or arm of the molecule; a dimerising Fc or GST; small tags and cut ends)
VL: DPVLTQTESPVSAAVGGTVTINCQASQSVYDDNNLAWYQQKPGQPPKRLIYPASTLASGVSSRFSGSGSGSQFTLTISDVQSDDAATYYCQGEFSCTSADCVAFGGGTEVVVK
VH: QEQLKESGGRLVTPGTPLTLTCTASGFSLSNYYMSWVRQAPGKGLEWIGGISSRAGTWYASWAKGRFTISGTSSTTMDLKITSPTTEDTATYFCARGLKIWGPGTLVTVSS
B2: CALRB119 (MP1016 Fab x CD3W245-HL-scFv, high affinity) (bispecific antibody, part only; not given: anti-CD3 scFv arm, constant regions, V domains shown, not shown: another chain or arm of the molecule; a dimerising Fc or GST; small tags and cut ends)
VL: DPVLTQTESPVSAAVGGTVTINCQASQSVYDDNNLAWYQQKPGQPPKRLIYPASTLASGVSSRFSGSGSGSQFTLTISDVQSDDAATYYCQGEFSCTSADCVAFGGGTEVVVK
VH: QEQLKESGGRLVTPGTPLTLTCTASGFSLSNYYMSWVRQAPGKGLEWIGGISSRAGTWYASWAKGRFTISGTSTTMDLKITSPTTEDTATYFCARGLKIWGPGTLVTVSS
B3: CALRB79 (MP1016 Fab x CD3W245-LH-scFv, medium affinity) (bispecific antibody, part only; not given: anti-CD3 scFv arm, constant regions, V domains shown, not shown: another chain or arm of the molecule; a dimerising Fc or GST; small tags and cut ends)
VL: DPVLTQTESPVSAAVGGTVTINCQASQSVYDDNNLAWYQQKPGQPPKRLIYPASTLASGVSSRFSGSGSGSQFTLTISDVQSDDAATYYCQGEFSCTSADCVAFGGGTEVVVK
VH: QEQLKESGGRLVTPGTPLTLTCTASGFSLSNYYMSWVRQAPGKGLEWIGGISSRAGTWYASWAKGRFTISGTSTTMDLKITSPTTEDTATYFCARGLKIWGPGTLVTVSS
B4: CALRB120 (MP1018C Fab x CD3W245-HL-scFv, high affinity) (bispecific antibody, part only; not given: CD3 scFv arm and IgG1 constant regions, V domains shown, not shown: another chain or arm of the molecule; a dimerising Fc or GST; small tags and cut ends)
VL: DVVMTQTPSSVSAAVGGTVTINCQASQSLYNNKNLAWYQQKPGQPPKLLIYYASALASGVSSRFKGSGSGTQFTLTISGVQSDDAATYYCQGEFNCNSADCNSFGGGTEVVVK
VH: QSVEESGGRLVTPGTPLTITCTVSGFSLSSYAMSWVRQAPGKGLEWIGVIDSGGTTYYATWAKSRFTISKTSSTKVALKITSPTTEDTATYFCARESYAGYDGYGHPIPYGMDPWGPGTLVTVSS
B5: CALRB80 (MP1018C Fab x CD3W245-LH-scFv, medium affinity) (bispecific antibody, part only; not given: CD3 scFv arm and IgG1 constant regions, V domains shown, not shown: another chain or arm of the molecule; a dimerising Fc or GST; small tags and cut ends)
VL: DVVMTQTPSSVSAAVGGTVTINCQASQSLYNNKNLAWYQQKPGQPPKLLIYYASALASGVSSRFKGSGSGTQFTLTISGVQSDDAATYYCQGEFNCNSADCNSFGGGTEVVVK
VH: QSVEESGGRLVTPGTPLTITCTVSGFSLSSYAMSWVRQAPGKGLEWIGVIDSGGTTYYATWAKSRFTISKTSSTKVALKITSPTTEDTATYFCARESYAGYDGYGHPIPYGMDPWGPGTLVTVSS
B6: CALRB81 (MP1018 Fab x CD3W245-LH-scFv, medium affinity) (bispecific antibody, part only; not given: anti-CD3 scFv arm, constant regions, V domains shown, not shown: another chain or arm of the molecule; a dimerising Fc or GST; small tags and cut ends)
VL: DVVMTQTPSSVSAAVGGTVTINCQASQSLYNNKNLAWYQQKPGQPPKLLIYYASALASGVSSRFKGSGSGTQFTLTISGVQSDDAATYYCQGEFNCNSADCNSFGGGTEVVVK
VH: QSVEESGGRLVTPGTPLTITCTVSGFSLSSYAMSWVRQAPGKGLEWIGVIDSGGTTYYATWAKSRFTISKTTKVALKITSPTTEDTATYFCARESYAGYDGYGHPIPYGMDPWGPGTLVTVSS
B7: CALRB115 (MP1004 Fab x CD3W245-HL-scFv, high affinity) (bispecific antibody, part only; not given: anti-CD3 scFv arm, constant regions, V domains shown, not shown: another chain or arm of the molecule; a dimerising Fc or GST; small tags and cut ends)
VH: QEQLEESGGRLVTPGTPLTLTCKVSGIDLSNNAISWVRQAPGKGLEYIGVIGNTGDTYYASWAKGRFTISKTSSTTVDLKMTSLTTEDTATYFCVRGPPSYSNSVKNIWGPGTLVTISS
VL: DPMLTQTPSSVSAAVGGTVTINCQSSQSVYNNNWLSWLQQKPGQPPNRLIYDASKLESGVPSRFSGSGSGTQFTLTISGVQSDDAATYYCAGGFTGNVYTFGGGTEVVVK
B8: Clone 5 (Fab, V domains shown)
VH: QEQLKESGGRLVAPGTPLRLTCTVSGIDLSNNAVSWVRQAPGKGLEYIGVIGNTGTTYYASWAKGRFTISKTTSTTVDLKMTSLTTDDTATYFCVRGPPSYSNSVKNIWGPGTLVTVSS
VL: DPVLTQTPSSVSAAVGGTVTIGCQSSQSVYDKNWLSWYQQKPGQPPSRLIYDASKLESGVPSRFSGSGSGTQFTLTISGVQCDDAATYYCAGGFTGNVYGFGGGTEVVVK
notes: Rabbit/human chimeric Fab on phage; also Fab-AP
B9: Clone 3 (Fab, V domains shown)
VH: QEQLKESGGRLVAPGTPLRLTCRVSGIDLSNNAVSWVRQAPGKGLEYIGVIGNTGSTYYANWAKGRFTISKTSSTTVDLKMTSLTADDTATYFCVRGPPSYSNSVKNIWGPGTLVTVSS
VL: DPMLTQTPSSVSAAVGGTVTIGCQSSQSVYDKNWLSWYQQKPGQPPSRLIYDASKLESGVPSRFSGSGSGTQFTLTISGVQCDDAATYYCAGGFTGNVYAFGGGTEVVVK
notes: Rabbit/human chimeric Fab (human CH1, CK) on phage; also soluble Fab-AP

Key:
[1] = molecular target: CALRdel52 (mutant calreticulin, 52 base pair deletion, Type 1) expressed with MPL on engineered cancer cells (UniProt P27797); experiment: cell-based or functional assay
Sequence of CALRdel52 (mutant calreticulin, 52 base pair deletion, Type 1) expressed with MPL on engineered cancer cells (P27797 other isoform, or with tags, fused parts or gaps mutant limits assumed): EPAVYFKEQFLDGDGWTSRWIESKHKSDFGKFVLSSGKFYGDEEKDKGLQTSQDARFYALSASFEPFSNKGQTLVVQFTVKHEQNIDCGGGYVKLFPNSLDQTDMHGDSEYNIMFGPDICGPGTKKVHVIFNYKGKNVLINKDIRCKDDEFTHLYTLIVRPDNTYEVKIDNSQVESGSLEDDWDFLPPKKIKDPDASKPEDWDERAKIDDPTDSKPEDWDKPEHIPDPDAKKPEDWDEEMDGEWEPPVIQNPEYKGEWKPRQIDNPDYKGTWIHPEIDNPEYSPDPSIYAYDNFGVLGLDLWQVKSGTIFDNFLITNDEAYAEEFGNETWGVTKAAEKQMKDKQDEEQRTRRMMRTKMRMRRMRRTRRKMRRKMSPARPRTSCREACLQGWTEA

[2] = molecular target: CALRins5 (mutant calreticulin, 5 base pair insertion, Type 2) expressed with MPL on engineered cancer cells (UniProt P27797); experiment: cell-based or functional assay
Sequence of CALRins5 (mutant calreticulin, 5 base pair insertion, Type 2) expressed with MPL on engineered cancer cells (P27797 other isoform, or with tags, fused parts or gaps mutant limits assumed): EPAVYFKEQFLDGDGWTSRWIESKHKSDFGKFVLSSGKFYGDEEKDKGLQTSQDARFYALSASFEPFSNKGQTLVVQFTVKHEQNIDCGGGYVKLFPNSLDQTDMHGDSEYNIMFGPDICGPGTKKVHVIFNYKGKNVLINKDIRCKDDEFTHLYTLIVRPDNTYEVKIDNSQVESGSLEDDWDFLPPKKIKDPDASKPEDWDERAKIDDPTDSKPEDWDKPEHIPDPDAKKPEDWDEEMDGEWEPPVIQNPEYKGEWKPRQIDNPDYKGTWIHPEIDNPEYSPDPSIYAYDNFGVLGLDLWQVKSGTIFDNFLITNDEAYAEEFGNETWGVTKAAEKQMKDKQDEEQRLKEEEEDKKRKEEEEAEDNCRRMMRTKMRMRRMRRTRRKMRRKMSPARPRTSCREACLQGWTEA

[3] = molecular target: T1, 22 amino acid CALRmut-specific peptide; experiment: phage ELISA; QC ELISA of soluble Fab-AP

Row | Binder | Cytotoxicity EC50, K562 MPL CALRdel52 cells [1] | Cytotoxicity EC50, OCI-M2 MPL CALRdel52 cells [1] | Cytotoxicity EC50, K562 MPL CALRins5 cells [2] | Cytotoxicity EC50, OCI-M2 MPL CALRins5 cells [2] | binding result [3]
1 | B1 | 0.0393 µg/mL | 0.0581 µg/mL | 0.0648 µg/mL | 0.0792 µg/mL | –
2 | B2 | 0.0064 µg/mL | 0.504 µg/mL | 0.0104 µg/mL | 0.0225 µg/mL | –
3 | B3 | 0.0444 µg/mL | 0.112 µg/mL | 0.0416 µg/mL | 0.0911 µg/mL | –
4 | B4 | 0.0077 µg/mL | 0.0091 µg/mL | 0.0119 µg/mL | 0.0145 µg/mL | –
5 | B5 | 0.0401 µg/mL | 0.0205 µg/mL | 0.0434 µg/mL | 0.0212 µg/mL | –
6 | B6 | 0.0457 µg/mL | 0.0196 µg/mL | 0.0509 µg/mL | 0.0171 µg/mL | –
7 | B7 | 0.0348 µg/mL | 0.0508 µg/mL | 0.0541 µg/mL | 0.0431 µg/mL | –
8 | B8 | – | – | – | – | binds
9 | B9 | – | – | – | – | binds
